Molecular target: human recombinant endorepellin tagged with His6, from 293-EBNA cells (human) (UniProt P98160)
Test: cell-based or functional assay

Chain of UniProt P98160 (P98160 3687-4391 limits assumed): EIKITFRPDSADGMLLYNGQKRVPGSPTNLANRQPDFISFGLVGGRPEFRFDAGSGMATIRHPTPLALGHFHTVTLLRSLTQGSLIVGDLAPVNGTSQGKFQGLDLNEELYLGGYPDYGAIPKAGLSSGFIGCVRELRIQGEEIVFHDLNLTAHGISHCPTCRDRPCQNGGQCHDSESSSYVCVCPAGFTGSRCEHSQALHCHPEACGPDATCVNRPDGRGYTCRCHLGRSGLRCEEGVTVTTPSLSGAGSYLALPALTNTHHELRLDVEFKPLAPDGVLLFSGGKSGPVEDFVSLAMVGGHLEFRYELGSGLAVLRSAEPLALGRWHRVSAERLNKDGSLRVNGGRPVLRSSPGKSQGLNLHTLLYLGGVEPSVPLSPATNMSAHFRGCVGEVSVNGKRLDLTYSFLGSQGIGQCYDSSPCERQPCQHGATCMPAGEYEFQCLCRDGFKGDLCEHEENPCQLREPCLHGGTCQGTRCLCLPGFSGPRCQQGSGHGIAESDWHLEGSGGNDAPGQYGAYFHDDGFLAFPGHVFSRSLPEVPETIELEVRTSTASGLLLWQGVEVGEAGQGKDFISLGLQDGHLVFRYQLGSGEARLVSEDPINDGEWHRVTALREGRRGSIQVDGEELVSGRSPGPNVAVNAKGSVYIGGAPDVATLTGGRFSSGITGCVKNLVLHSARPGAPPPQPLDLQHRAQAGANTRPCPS

## recombinant endostatin purified from Pichia pastoris yeast cells (Calbiochem-Novabiochem)
  VEGF-induced HUVEC migration through fibrillar collagen (molar ratio of endostatin/endorepellin): 1

From US6821947
